Assay results as given in US20020037514A1, “Identification of nuclear receptor-dependent coregulator recruitment” (priority 2000, published 2002).

Target: T1, RARα-V5/RXRγ/DR-5 ternary complex (Homo sapiens, UniProt P10276)
T1 construct: the nuclear receptor subunits used in the invention are full length nuclear receptor monomer subunits; expressed in transfected cells; host or cells: CV-1 (green monkey kidney), whole-cell lysate
T1 sequence (P10276 1-462): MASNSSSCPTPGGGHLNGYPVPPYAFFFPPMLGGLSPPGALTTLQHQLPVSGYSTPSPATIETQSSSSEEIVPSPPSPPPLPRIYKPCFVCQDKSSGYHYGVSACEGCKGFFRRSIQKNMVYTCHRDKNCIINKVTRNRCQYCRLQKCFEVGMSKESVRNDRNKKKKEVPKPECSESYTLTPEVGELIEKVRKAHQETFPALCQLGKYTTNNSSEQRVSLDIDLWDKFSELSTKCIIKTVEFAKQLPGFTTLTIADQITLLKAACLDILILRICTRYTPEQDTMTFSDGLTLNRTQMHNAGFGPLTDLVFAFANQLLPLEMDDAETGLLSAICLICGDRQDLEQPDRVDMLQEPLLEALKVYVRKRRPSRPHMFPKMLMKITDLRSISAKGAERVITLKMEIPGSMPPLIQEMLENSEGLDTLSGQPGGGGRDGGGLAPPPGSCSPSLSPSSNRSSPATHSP
T1 sequence (P28705 1-463 partner): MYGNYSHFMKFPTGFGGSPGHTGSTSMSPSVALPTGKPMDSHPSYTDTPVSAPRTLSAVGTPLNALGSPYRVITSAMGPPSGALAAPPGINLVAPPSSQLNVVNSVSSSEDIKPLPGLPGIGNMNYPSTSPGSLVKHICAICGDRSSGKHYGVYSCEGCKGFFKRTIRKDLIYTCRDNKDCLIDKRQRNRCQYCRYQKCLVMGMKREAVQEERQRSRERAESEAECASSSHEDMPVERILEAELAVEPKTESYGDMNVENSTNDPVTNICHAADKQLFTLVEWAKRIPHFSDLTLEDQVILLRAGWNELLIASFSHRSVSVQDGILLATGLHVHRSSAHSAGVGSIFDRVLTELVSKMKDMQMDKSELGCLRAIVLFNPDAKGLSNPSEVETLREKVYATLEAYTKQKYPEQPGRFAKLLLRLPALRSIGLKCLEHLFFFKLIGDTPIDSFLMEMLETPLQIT
Experiment: LXD peptide competition of ATRA-induced co-activator recruitment (Example 7, FIG. 8A)
Type: biochemical
Conditions: SRC-1 peptides at 40 μl (so in the source), DR-5 RARE
Description: Nolte, R. T. et al., Nature 395:137-143 (1998). We addressed the importance of each of the three LXDs in mediating co-activator-receptor interaction using synthetic peptides comprising the LXD1, LXD2 or LXD3 amino acid sequences as competitors with SRC-1 in the DNA modified immunoprecipitation methods of the present invention. These peptides have the following amino acid sequences (with the characteristic LXXLL motif shown in bold):
Transfection, DR-5 oligonucleotide treatment, ligand treatment, immunoprecipitation and detection of associated co-factors were performed essentially as shown in the previous Examples. CV-1 cells were transfected with plasmids expressing either RARα/RXRγ-V5 or with RARγ/RXRα-V5. Synthetic LXD peptides were added to the cell lysate before the addition of retinoids at a concentration of 20 (ACTR) and 40 (SRC-1) […].

Sequence: SLTERHKILHRLLQEGSPSDIT (Nuclear co-activator LXD-containing peptide) [SRC-1 LXD2]
- effect of peptide on ATRA-induced recruitment of SRC-1: completely abolished
